The assay addresses purified glutathione reductase (GR). The experiment in a line: cell-based or functional assay.

The results in this text go back to US20120124684A1.

Consider purified αBC, for which the GR activity in vitro (purified GR with purified αBC, compared to a BSA control; proteins added at a 1:4 molar ratio to GR) was determined as 18%.
